From patent US9675625B2, “Medicament comprising recombinant antibody against chemokine receptor CCR4” (KYOWA HAKKO KIRIN CO., LTD., priority 2003, dated 2017) come the findings set out here.

For series [1], the system named is CCRF-CEM cells. In words: antitumor effect of KM 2760 and etoposide in combination, CCRF-CEM cells grafted in nude mouse. The format is in vivo, Balb/c nude mouse. Particulars: Day 7; KM 2760 800 μg per mouse Day 0 and Day 4; VP-16 10 mg/kg Day 0 to Day 4; tail vein. The method, then:
CCRF-CEM cells (human T cell leukemia cell line) were suspended in RPMI 1640 medium (Gibco BRL) at a concentration of 2×10^8 cells/mL, and 100 μL of the suspension was grafted into the ventral skin of Balb/c nude mice (Nippon Crea, male). On Day 17 after the cell grafting, a diameter of a tumor was measured with calipers, and a tumor volume was calculated using formula 2 in Example 2.
Individuals having the tumor volume within the range of from 121 to 348 mm^3 (on average 195 mm^3) were selected, and grouped such that the average tumor volume to be almost the same. Each of the following agents A to D was then administered to the mice. Incidentally, the grouping day was defined as Day 0.
B. Group of administering KM 2760 alone: 800 μg of KM2760 was administered per mouse on Day 0 and Day 4.
C. Group of administering etoposide (hereinafter referred to as VP-16; Lastet injection, Nippon Kayaku Co., Ltd.) alone: 10 mg/kg of VP-16 was administered per mouse for 5 days from Day 0 to Day 4. […]
The experiment was conducted with groups each consisting of five mice. […] On Day 7, the tumor volume was measured. The antitumor effect was evaluated by comparing average values of a tumor volume change (V/V0) on Day 7 when the tumor volume on Day 0 in each group was defined as V0.

For series [2], the system named is CCR4/EL4 cells. In words: in vitro cytotoxic activity (ADCC) of KM 2760 with cytokine-stimulated effector cells, LDH release. It counts as cell-based, mouse. Particulars: KM 2760 1 or 100 ng/mL, effector:target 15:1, 37° C. 4 hours, no cytokine, FIG. 1. The method, then: An effect of using anti-CCR4 human chimeric antibody KM 2760 (FERM BP-7054, WO 01/64754) and a cytokine in combination in an in vitro cytotoxic activity was measured by the following method.
A vein blood (50 mL) was collected from a healthy person, 0.5 mL of heparin sodium (manufactured by Shimizu Seiyaku K.K.) was added, and they were gently mixed. A mononuclear cell layer was separated from using a MONO-POLY separation solution (manufactured by Dainippon Pharmaceutical Co., Ltd.) according to the attached manual. […]
The target cell suspension (50 μL) prepared in the above (c) was added to each well of a 96-well U-shaped bottom plate containing the effector cells stimulated with the cytokine in the above (b) such that the concentration became 1×10^4 cells/well. […] After the reaction, the plate was subjected to centrifugation, and a lactic acid dehydrogenase (hereinafter referred to as LDH) activity in the supernatant was measured by obtaining an absorbance data with CytoTox96 Non-Radioactive Cytotoxic activity Assay (manufactured by Promega) according to the attached manual. […] Cytotoxic activity (%)=[(absorbance of a specimen)−(absorbance of effector cell spontaneous release)−(absorbance of target cell spontaneous release)]/[(absorbance of target cell total release)−(absorbance of target cell spontaneous release)]×100 (Formula 1)

Series [3] has as its system CCRF-CEM cells. The series can be described thus: antitumor effect of KM 2760 and vincristine in combination, CCRF-CEM cells grafted in nude mouse. It counts as in vivo, Balb/c nude mouse. Particulars: Day 10; KM 2760 800 μg per mouse Day 0 and Day 4; VCR 0.55 mg/kg Day 0; tail vein.

B1: KM 2760: anti-CCR4 human chimeric antibody KM 2760 (FERM BP-7054, WO 01/64754) (antibody, V domains shown)
VH: EVQLVESGGDLMKPGGSLKISCAASGFIFSNYGMSWVRQTPDMRLEWVATISSASTYSYYPDSVKGRFTISRDNAENSLYLQMNSLRSEDTGIYYCGRHSDGNFAFGYWGRGTLVTVSA
VL: DVLMTQTPLSLPVSLGDQASISCRSSRNIVHINGDTYLEWYLQRPGQSPKLLIYKVSNRFSGVPDRFSGSGSGTDFTLKISRVEAEDLGVYYCFQGSLLPWTFGGGTRLEIRR
Regarding B1, the “T/C (V/V0 of group divided by V/V0 of negative control group)” value is recorded as 0.65 in series [1] and 0.43 in series [3]. For the same molecule, in series [2], the cytotoxic activity result is listed as “increased in a concentration-dependent manner”.
